Target: T1, LHRH receptor (LHRH-R) (human (endogenous in MCF-7 and Hs68)) (UniProt P30968)
T1 sequence: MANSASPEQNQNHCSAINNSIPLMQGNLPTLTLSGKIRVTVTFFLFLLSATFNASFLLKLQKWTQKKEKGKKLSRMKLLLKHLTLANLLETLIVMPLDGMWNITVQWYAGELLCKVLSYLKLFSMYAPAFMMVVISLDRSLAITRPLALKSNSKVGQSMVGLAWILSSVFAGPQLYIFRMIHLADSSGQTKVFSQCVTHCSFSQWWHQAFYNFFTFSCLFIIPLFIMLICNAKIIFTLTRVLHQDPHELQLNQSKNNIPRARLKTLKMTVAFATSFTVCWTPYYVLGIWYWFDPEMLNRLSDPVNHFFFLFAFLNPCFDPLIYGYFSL

B1: LHRH-BinBC (luteinizing hormone-releasing hormone peptide fused through a GSG linker to the N-terminus of the pore-forming C-terminal domain of BinB) (protein)
chain: QHWSYGLRPGGSGIPQLPQTSLLENIPEPTSLDDSGVLPKDAVRAVKGSALLPCIIVHDPNLNNSDKMKFNTYYLLEYKEYWHQLWSQIIPAHQTVKIQERTGISEVVQNSMIEDLNMYIGADFGMLFYFRSSGFKEQITRGLNRPLSQTTTQLGERVEEMEYYNSNDLDVRYVKYALAREFTLKRVNGEIVKNWVAVDYRLAGIQSYPNAPITNPLTLTKHTIIRCENSYDGHIFKTPLIFKNGEVIVKTNEELIPKINQ
With B1 as the binder, how does the IC50 of inhibition of MCF-7 cell proliferation (MTT assay, 48 h, 1-16 μM LHRH-BinBC) read?
Its IC50 of inhibition of MCF-7 cell proliferation (MTT assay, 48 h, 1-16 μM LHRH-BinBC) is 11 µM.

Reference: article PMC10145556
